Assay results: PMC9891822, “Cysteine Pathogenic Variants of PMM2 Are Sensitive to Environmental Stress with Loss of Structural Stability” (Oxidative Medicine and Cellular Longevity, 2023)
Where a chain is given by its changes, count along the chain named. Names and notes keep the numbering of the source.

B1: Phosphomannomutase2 (PMM2) wild type (enzyme, human, UniProt O15305-1 1-246, looked up)
chain: MAAPGPALCLFDVDGTLTAPRQKITKEMDDFLQKLRQKIKIGVVGGSDFEKVQEQLGNDVVEKYDYVFPENGLVAYKDGKLLCRQNIQSHLGEALIQDLINYCLSYIAKIKLPKKRGTFIEFRNGMLNVSPIGRSCSQEERIEFYELDKKENIRQKFVADLRKEFAGKGLTFSIGGQISFDVFPDGWDKRYCLRHVENDGYKTIYFFGDKTMPGGNDHEIFTDPRTMGYSVTAPEDTRRICELLFS
notes: PMM2, human, open reading frame NM_000303, primers from the start codon to the stop codon; Cloned into pET28a(+) 'containing 6x His-tag'; also called PMM2-WT; WT; source: E. coli BL21 (DE3), purified (Ni-NTA, Superdex 75)
B2: PMM2 Cys241Ser (C241S) variant (enzyme, human, UniProt O15305-1 1-246, looked up)
chain: B1 chain with C241S
notes: PMM2, human, open reading frame NM_000303, with the pathogenic variant C241S (c. G722C) found in patients; Cloned into pET28a(+) 'containing 6x His-tag'; also called PMM2-C241S; source: E. coli BL21 (DE3), purified (Ni-NTA, Superdex 75)
B3: PMM2 Cys9Tyr (C9Y) variant (enzyme, human, UniProt O15305-1 1-246, looked up)
chain: B1 chain with C9Y
notes: PMM2, human, open reading frame NM_000303, with the pathogenic variant C9Y (c. G26A) found in patients; Cloned into pET28a(+) 'containing 6x His-tag'; also called PMM2-C9Y; source: E. coli BL21 (DE3), purified (Ni-NTA, Superdex 75)

Molecular target: the molecule itself
Assay: SEC; Superdex 75 10/300GL on an AKTA purifier; 100 uL of 0.2 mg/mL protein injected; 0.6 mL/min; 20 mM Na2HPO4, 150 mM NaCl, 1 mM EDTA; mass estimated from the elution volume

Stoichiometry N, 2:
B1
B2
B3
